Test results from US5843888.

Assays:
[1] = target: α chain (α96Val→Trp) with the N-terminal methionine, as expressed in E. coli before processing (human)
[2] = target: β chain of human hemoglobin with the N-terminal methionine, as expressed in E. coli before processing (human)

Substance: E. coli methionine aminopeptidase (from UniProt P0AE18) (enzyme)
- removal of the N-terminal methionine, electrospray mass spectrometry of the purified r Hb [1]: > 98%
- removal of the N-terminal methionine, electrospray mass spectrometry of the purified r Hb [2]: 90%
